The text below walks through data of patent US12066430.

Common to all, as to assay: cell-based or functional assay
In assay [1] the target is HLA-A2 on control CD80+HLA-A2+ K562 cells (no defined peptide) (human).
For assay [2], the target named is single-chain trimer (SCT) of HLA-A2/MART1 26-35(A27L), on cells (human).
Assay [3] concerns the target single-chain trimer (SCT) of HLA-A2/NYESO1 157-165(C165V), on cells (human).
In assay [4] the target is single-chain trimer (SCT) of HLA-A2 with the USP7 mutant 9-mer peptide …, on K562 cells (human).

As to “1G4 TCR (A2/NYESO1 157-165-specific), expressed on cells”, in assay [1], the percentage of trogocytosis^+ control CD80^+HLA-A2^+ K562 cells (NYESO1-K562 dilution experiment) stood at 0.33% and the percentage of trogocytosis^+ control cells (MART1-K562 dilution experiment) worked out at 0.41%. In assay [2], the percentage of trogocytosis^+ MART1-K562 cells (one per 10,000 control cells) was 1.6% and the share of MART1-K562 among trogocytosis^- target cells (1:1 mixture, co-incubated with 1G4-Jurkat) was 70.8%. Besides, in assay [3], the percentage of trogocytosis^+ NYESO1-K562 target cells (diluted 1:10,000 in control cells) came to 70.8%; the share of NYESO1-K562 among trogocytosis^+ target cells (1:1 mixture of NYESO1-K562 and MART1-K562, read by TCR dextramer staining) was 95.1%; the share of NYESO1-K562 among trogocytosis^- target cells (1:1 mixture, co-incubated with 1G4-Jurkat) was determined as 23.7%; the trogocytosis (TCR transfer to K562) of CD8 co-expressing Jurkat cells relative to those only expressing TCR turned out to be 3 fold.

Take “F5 TCR (HLA-A2/MART1 26-35-specific), expressed on cells”: in assay [1], the percentage of trogocytosis^+ control CD80^+HLA-A2^+ K562 cells (NYESO1-K562 dilution experiment) was 0.35% and the percentage of trogocytosis^+ control cells (MART1-K562 dilution experiment) was found to be 0.46%. In assay [4], this substance came in with a Specific Cytotoxic Killing (Avg. % Specific Lysis), E:T 2 to 1 (Avg. % Specific Lysis) of 0.0644; a Specific Cytotoxic Killing (Avg. % Specific Lysis), E:T 4 to 1 (Avg. % Specific Lysis) of 0.0366; a Specific Cytotoxic Killing (Avg. % Specific Lysis), E:T 8 to 1 (Avg. % Specific Lysis) of 0.0406; a Specific Cytotoxic Killing (Avg. % Specific Lysis), E:T 16 to 1 (Avg. % Specific Lysis) of 0. In assay [2], this substance yielded a Specific Cytotoxic Killing (Avg. % Specific Lysis), E:T 2 to 1 (Avg. % Specific Lysis) of 0.16; a Specific Cytotoxic Killing (Avg. % Specific Lysis), E:T 4 to 1 (Avg. % Specific Lysis) of 0.268; a Specific Cytotoxic Killing (Avg. % Specific Lysis), E:T 8 to 1 (Avg. % Specific Lysis) of 0.377; a Specific Cytotoxic Killing (Avg. % Specific Lysis), E:T 16 to 1 (Avg. % Specific Lysis) of 0.593. Besides, in assay [2], the percentage of trogocytosis^+ MART1-K562 cells (one per 10,000 control cells) was 73.4%; the share of MART1-K562 among trogocytosis^+ target cells (1:1 mixture, co-incubated with F5-Jurkat) is 94.9%; the share of MART1-K562 among trogocytosis^- target cells (1:1 mixture, co-incubated with F5-Jurkat) is 18.8%; the shift in LNGFR and TCR staining of K562 target cells lay in the range of 2 to 3 fold. Besides, in assay [2], the shift in streptavidin staining of K562 target cells (transfer of biotinylated Jurkat membrane proteins) is 3.5 fold and the trogocytosis (TCR transfer to K562) of CD8 co-expressing Jurkat cells relative to those only expressing TCR turned out to be 3 fold. Further, in assay [3], the percentage of trogocytosis^+ NYESO1-K562 target cells (diluted 1:10,000 in control cells) was found to be 0% and the share of NYESO1-K562 among trogocytosis^- target cells (1:1 mixture, co-incubated with F5-Jurkat) was determined as 76.3%.
